The nanobody polyreactivity screen of Harvey et al. (2022)

Assay: yeast display, Sf9 membrane polyspecificity reagent, FACS + sequencing; frameworks hold sequencing errors
Method in brief: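 Sorting gates, low and high (top ~1%), were placed on anti-HA fluorescence to track expression and on streptavidin fluorescence to track reagent binding. A clone's polyreactivity label is taken from the gate it came out of. The reagent was 10% biotinylated, detergent-solubilized Sf9 membrane, applied for 1 hour at 4 °C to galactose-induced yeast display cells.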

| Sequence | polyreactivity (PSR sort gate) |
| --- | --- |
| QDQHVESGGGLVQAGGSLRLSCDASGFIFTYYAMGWYRQAPGKERELVAAISRSGGNTYYADSVKGRFTISRDNAKNTVYLQMNSLIPEDTAVYYCAAETRRGGYWGYEYYYWGQGTQVTVSS | high polyreactivity |
| QVQLVESGGGLVQAGGSLRLICAASGFIFDYNTMGWYRPAPGKERELVAGITSGGSTNYADSVKGRFTISRDNAKNTVYLQMNSLKPEDTAVYYCATVDDEYYGYDYWGQGSQVTVSS | low polyreactivity |
| QVQLVESGGGLVQAGGSIRLSCAASGRIFRYYHMGWYRQAPGKERELVARISSTGRTYADSVKGRFTISRDNAKNSVYLQMYSLKPEDTAVYFCAALFHTRGHSKYDYWGQGTQVTVSS | high polyreactivity |
| QVQLVESGGGLVQAGGSLRLSCAASGITFNHYTMGWYRQAPGKERELVAAISSRGSTTYYADSVKGRFTISRDNAKNTVYLQMNSLKPEDTAVYYCAARYPTYYRPRYRGRPGYDYWGKGTQVTVSS | high polyreactivity |
| QVQHVESGGGLVQAGGSLRLSCAASGRTSFNYTQGWYRQAPGKERELVAAITSGGDTYYADSVKGRFTISRDNAKNTVYLPMNSLKPEDTAVYYCAVDDLGSEYDYWGQGTQVTVSS | low polyreactivity |
| QVQLVESGGGLVQAGGSLRLSCAASGITFKANAMGWYRQAPGKERELVAAIRQNGGDTYYADSVKGRFTISRDNAKNTVYLQMNSLKPEDTAVYYCNARLRGAGGYTFYYWGQGTQVTVSS | high polyreactivity |
| QFQLVESGGGLVQAGGSLRLSCAASGIIFNRNVMRWYRQAPAKERELVAAITWGGGRTYYADSVKGRFTISRDNAKNTVYLQMNSLIPVDTAVYFCAARSRGSSRFDYWGQGTQVTVSS | high polyreactivity |
| QLQLVESGGGLVQAGGSLRLSCAASGRTFQIYAMGWYRQAPVNERELVARITGVGSTNYADSVKGRFTISRDNAKNTVYLQMNSLKPEDTAVYYCNKRDGNWEYDYWGQGTQVTVSS | low polyreactivity |
| QVQLVESGGGLVQAGGSLRLSCAASGSIFRRNVMGWYRQAPGKERELVAAITGSGGSTYYADSVKGRFTISRDNAKNTVYLQMNSLKPEDTAVYYCAKVPYYSRPHDYWGQGTQVTVSS | high polyreactivity |
| QVQLVESGGGLVQAGGSLRISCAASGITLYDNVMGWYRQAPGKERELVAAISSSGTTKYYADSVKGRFTMSRDHANNTVYLQMNSLKPEDTAGSYCAADGITWYAIAYYYWGQGTQVTVSS | high polyreactivity |
| QVQLVESGGGLVQAGGSLRLSCAASGGTFPYNAMGGYRQAPGKERELVAVITSGDGTYYADSVKGRFTISRDNAKNTVYLQMNSLKPEDTAVYYCAADYVVWFSFVYVVEYDYWGQGTQVTVSS | low polyreactivity |
| QVQLVESGGGLVQAGGSLRLSCAASGSNFRYYAMGWYRQAPGTERELVADISSGGSTYYADSVKGRFTISRDNAKNTVYLQMNRLKPEDTAVYYCKADYYAYPWTNDYWGQGTQVTVSS | high polyreactivity |
| QVQLVESGGGLFKEGGSLRLSCAASASYFWFNAMGWYRQAPGKEREFGASISRSGGTTYYADSVKGRFTISRDNAKNTVYLQMKSVIPEDTAVYYCNARAFGTGVGTGYFGKDRYDYWGQGSQVTVSS | low polyreactivity |
| QVQLVESGGGLVQAGGSLRLSCAASGRIFTGYAMGWYRQAPGKERELVAAINWSGGSTYYADSVKGRFTISRDNAKNTVYLQMNSLKPADTAVYYCNAGYVFSGSYYKYDYWGQGTQVTVSS | high polyreactivity |
| QVQLVESGGGLVQAGGSLRLSCAASGSTFLRYDMGWYRQAPGKDRELVAAINWSGGGTSYADSVKGRFTISRDNAKNTVYLQMNSLKPEDTEVYYCAAYFRYSYYWSEYWGQGTQVTVSS | high polyreactivity |
| QVQLVDSGGGLVQAGGSLRLSCAASGRIFPYYDMGWYRQAPGKERELVAAITWNGGSTYYADSVKGRFTISRDNAKNTVYLQMNSLKPEDTAVYYWAVEPYYYGEDYWGQGTQVTVSS | low polyreactivity |
| QVQLVESGGGLVQAGGSLRLSCAASGGIFWNYAMGWYRQAPGKERELVAVINTGGRTYYADSVKGRFTISRDNAKYTVYLQMNSLKPEDTAVYYCAAKDFTIHYDYWGQGTQVTVSS | high polyreactivity |
| QVQLVESGGGLVQAGGSLRLSCAASGFTFRSYAMGWYRQAPGKERELVAAISSTGRTYYADSVKGRFTISRDNAKNTVYLQMNSLKPEDTAVYYCARNIPVSYYRYGYWGQGTQVTVSS | high polyreactivity |
| QVQLVESGGGLVQAGGSLRLSCAASGGTFPFNAMGRYRQAPGKEREFVAAISFRGGSTYYADSVKGRFTISRDNAKNTVYLQMNSLKPEDTAVYSCAAYRLRPRNGVYRMDYWGQGTQVTVSS | high polyreactivity |
| QVQLVESGGGLVQAGGSLRLSCAASGFIFLTNAMGWYRQAPWKERELVAAITGGGITYYADSVKGRFTISLDNAKNTVYLQMNSLNPEDTAVYYCATDSLIFTIFDYWGQGSQVTVSS | low polyreactivity |
| QVQLVESGGGLVQAGGSLRLSCAASGFIIGSYTMGWYRQAPGKERELVASITKRGGSTYYADSVKGRFTISRDNAKNTVYFQMNSLKPEDTAVYYCAATYWFSHRSRYDYWGQGTQVTVSS | high polyreactivity |
| QVQLVESGGGLVQAGGSLRLSCAASGNTFLYYSMGWYRQAPGKEMELVASINLSDGSTYYADSVKGRFTISRDNAKNTVYFQMNSLKPEDTAVYYCAAVYGGYTIYDYWGQGTQVTVSS | low polyreactivity |

| Sequence | polyreactivity (PSR sort gate) |
| --- | --- |
| QVQLVESGGGLVQAGGSLRLSCAASGSTFARYAMGWYRQAPGKERELVAGISTSGGRTYYADSVKGRFTISRDNAKNTVYLQMTSLKPEDTAVYYCAKALSQTWYDGQYGYWGQGTQVTVSS | low polyreactivity |
| QVQLVESGGGLVQAGGSLRLSCAASGFTFYSNAMGWYRQAPGKERELVAAITSGGNTNYADSVKGRFTISRDNAKNTVYLQMNSLKPEDTAVYYCAAYPPSQRAEYDFWGQGTQVTVSS | low polyreactivity |
| QVQLVESGGGLVQAGGSLRLSCAASGRIFSSYAMGWYRQAPGKERELVAAISSRGGSTYYADSVKGRFTIARDNAKNTVYLQMNSLKPEDTAVYYCARVKYSGVVYKYDYWGQGTQVTVSS | high polyreactivity |
| QVQLVESGGGLVQAGGSLRLSCAASGSTFYSYAMGWYRQAPGKERELVADITDSGGSTYYADSVKGRFTISRDNAKNTVYLQMNSLKPEDTALFYCNAAYYIWYNKVSSTYGIHGMDYWGQGTQVTVSS | high polyreactivity |
| QVQLVESGGGLVQAGGSLRLSCAASGSIFRNNAMGWYRQAPGKERELVASITRRGGSTYYADSVKGRFTISRDNAKNTVYLQMNSLKPEDTAVYYCAATTQHRYKLNYWGQGTQVTVSS | high polyreactivity |
| QVQLVESGGGLVQAGGSLRLSSAASGSIQFRNAMRWYRHAPGKERELVAAITVSGGSTYYADSVKGRFTISRDYAKNRVYLQMNSLKPEDNAVYLCAAVYLLRYSQFDYWGQGTQVTESS | low polyreactivity |
| QVQLVESLGGLVQAGGSLRLSCAASGRTFPGYAMGWYRQAPGKERELVAAISYTGTRTYYADSVKGRFTISRDNAKNTVYLQMNSLKPEDTAVYFCAAGVQRVSGSYGYWGQGTQVTVSS | high polyreactivity |
| QVQLVESGVGLVQAGGSLRLICAASGSTFGYYAMGWYRQAPGKERELVAAITGRGGSTYYADSVKGRFTISRDNAKNTVYLQMNSLKPEDTAVYYCAVGKYRLYYSGAYGFWGQGTQVTVSS | high polyreactivity |
| QVQLVESGGGLVQAGGSLRLSCAASGSTCWSYAMGWYRQAPGKERELVATITRAGTTNYADSVKGRFTISRDNAKNTVSLQRNSLNPEDTAVYYCAKRIFRWPYQGSYSFIPFGYWGQGTQVTVSS | high polyreactivity |
| QVQLVESGGGLVQAGGSLRLSCAASGRIFPYYAMGWYRQAPGKERELVATITSGGSTYYADSVKGRFTISRDNAKNTVYLQMNSLKPEDTAVYYCAARYPSIYYYRYDYWGQGTQVTVSS | high polyreactivity |
| QVQLVESGGGLVQAGGSLRLSCAASGSTFARYAMGWYRQAPGKERELVAAISRSGSNTYYADSVKGRFTISRDNAKNTVYLQMNSLKPEDTAVYYCAAVQPGQRTVAYDYWGQGTQVTVSS | high polyreactivity |
| QVQLVESGGGLVQAGGSLRLSCGASGLTCREYAMGWYRQAPGKERELVAAITSTGGNTYYADSVKGRFPISRDNAKNTVYLQMNSLTPEDTAVYYCAARTTRRVTSGKFDYWGQGTQVTVSS | high polyreactivity |
| QVQLLESGGGIVQAGGSLRLSCAASGRTFSRYVMGWYRQAPGKERELVATISRSGGSTFYADSVKGRFTISRDNAKNTVYLQMNSLKPEDTAVYYCNKKVQGYQVTYGYWGQGTQVTVSS | high polyreactivity |
| QVQLVESGGGLVQAGGSLRLSCAASGFIFGLNAMGWYRQAPGKERELVAVIAFSGGSTYYADSVKGRFTISRDHAKNTVYLQMNSLKPEDTAVYYCNAVTRYPHPREYDYWGQGTQVTVSS | high polyreactivity |
| QVQLVESGGGLVQAGGSLRLSCAASARIFKLNAMGGYRQAPVKERELVAAINSGTRTYYADSVKGRFSISRDNAKNTVYLQMKSLKPEDTAVYYGAAEGVWWYSRYDYWGQGTQVTVSS | high polyreactivity |
| QVQLVESGGGLVQAGGSLRLSCAASGRIVKYAMGWYRQAPGKERELVAAISGSGGTTYYADSVKGRFTISRDNAKNTVYLQMNSLKPEETAVYYCAASRPRPPSSRRMDYWGQGTQVTVSS | high polyreactivity |
| QVQLVESGGGLVQAGGSLRLSCAASGFTIWRYAMGWYRQEPGKERELVAAISRGGSTNYADSVKGRFTISRDNAKNTVYLQMNSLKPEDTAVYYCAASVLYRRLKKFYYWGQGTQVTVSS | high polyreactivity |
| QVQLVESGGGLVQAGGSLRLSCAASGSIFTGNAMGWYRQAPGKERELVAAITRTGSTNYADSVKGRFTISRDNAKNTVYLQMNSLKPEDTAVYYCATDRTFTISNYDYWGQGTQVTVSS | low polyreactivity |
| QVQLVESGGGLVQAGGSLRLSCAASGSTFQVYAMGWYRPAPRKERELVATIRRTGGSTYYADSVKGRFTISRDNAKNTVYLQMNSLKPEDTAVYYCAARTYGGIVLRLDYWGQGTQVTVSS | high polyreactivity |
| QVQLVESGGGLVQAGGSLRLSCAASGRTFLPNAMGWYRQAPGKERELVAVITSGGSTNYADSVKGRFTISRDNAKNTVYLQMNSLKPEDTAVYYCAARRWSSSQGHWGKSAGYGYWGQGTQVTVSS | low polyreactivity |
| QVQLVESGGGLVQAGGSLRLSCAASGLTFEYNAMGWYRQAPGKERELVAAITSGDNTYYADSVKGRITISRDNAKNTVYLQMNSLKPEDTAVYYCAKYRWNWRYVSRGDSWGQGTQVTVSS | high polyreactivity |
